The record followed here is PMC9927934.

The target of this assay is L973F mutant human insulin receptor B isoform, FLAG tagged (human).

B1: Shc (natural protein)
chain: MDLLPPKPKYNPLRNESLSSLEEGASGSTPPEELPSPSASSLGPILPPLPGDDSPTTLCSFFPRMSNLKLANPAGGRLGPKGEPGKAAEDGEGSAGAALRDSGLLPLLQDMNKLSGGGGRRTRVEGGQLGGEEWTRHGSFVNKPTRGWLHPNDKVMGPGVSYLVRYMGCVEVLQSMRALDFNTRTQVTREAISLVCEAVPGAKGATRRRKPCSRPLSSILGRSNLKFAGMPITLTVSTSSLNLMAADCKQIIANHHMQSISFASGGDPDTAEYVAYVAKDPVNQRACHILECPEGLAQDVISTIGQAFELRFKQYLRNPPKLVTPHDRMAGFDGSAWDEEEEEPPDHQYYNDFPGKEPPLGGVVDMRLREGAARPTLPSAQMSSHLGATLPIGQHAAGDHEVRKQMLPPPPCPGRELFDDPSYVNIQNLDKARQAGGGAGPPNPSLNGSAPRDLFDMKPFEDALRVPPPPQSMSMAEQLQGEPWFHGKLSRREAEALLQLNGDFLVRESTTTPGQYVLTGLQSGQPKHLLLVDPEGVVRTKDHRFESVSHLISYHMDNHLPIISAGSELCLQQPVDRKV
In the case of B1, the Shc phosphorylation in L973F-IR cells against WT-IR cells, immunoblot, 1 to 100 nM insulin for 15 minutes (printed together with Gab-1 and ERK phosphorylation) is 2 to 4 fold.
